Assay results from article doi:10.1101/2021.07.30.454553 (bioRxiv, 2021).
Like-named read-outs stand apart in the source and are kept apart here.

Assays:
[1] = biological target: T1, full-length human kinesin-1 heavy chain (KIF5B) (human, UniProt P33176 1-963, LD555, LD655 or Alexa488 label (imaging assays)); assay: single-molecule colocalisation on microtubules
T1 sequence (looked up): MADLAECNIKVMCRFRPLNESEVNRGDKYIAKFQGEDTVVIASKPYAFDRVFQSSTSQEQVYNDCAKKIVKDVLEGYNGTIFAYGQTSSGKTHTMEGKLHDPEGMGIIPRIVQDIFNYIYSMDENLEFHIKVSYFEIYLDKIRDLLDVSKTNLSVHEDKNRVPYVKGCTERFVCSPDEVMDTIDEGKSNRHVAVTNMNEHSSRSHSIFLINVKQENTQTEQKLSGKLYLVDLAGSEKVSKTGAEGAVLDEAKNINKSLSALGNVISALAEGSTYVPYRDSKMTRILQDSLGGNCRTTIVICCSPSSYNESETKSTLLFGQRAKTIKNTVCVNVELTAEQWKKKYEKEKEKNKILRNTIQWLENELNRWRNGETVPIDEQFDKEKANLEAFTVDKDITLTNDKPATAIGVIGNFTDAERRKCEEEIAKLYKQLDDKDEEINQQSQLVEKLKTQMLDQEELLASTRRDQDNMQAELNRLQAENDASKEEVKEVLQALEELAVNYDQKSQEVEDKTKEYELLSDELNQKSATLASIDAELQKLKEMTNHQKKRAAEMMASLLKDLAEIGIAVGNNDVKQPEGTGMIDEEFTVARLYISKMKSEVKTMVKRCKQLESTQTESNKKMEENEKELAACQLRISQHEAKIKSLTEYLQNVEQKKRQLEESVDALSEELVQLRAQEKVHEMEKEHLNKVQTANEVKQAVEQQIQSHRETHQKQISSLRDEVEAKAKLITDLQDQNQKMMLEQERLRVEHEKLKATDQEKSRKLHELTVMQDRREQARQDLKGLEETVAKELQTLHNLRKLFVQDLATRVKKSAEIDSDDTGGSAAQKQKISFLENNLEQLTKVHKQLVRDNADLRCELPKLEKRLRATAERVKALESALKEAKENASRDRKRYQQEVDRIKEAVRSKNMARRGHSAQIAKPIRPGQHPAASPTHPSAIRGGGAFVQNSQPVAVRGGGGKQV

[2] = biological target: T1, full-length human kinesin-1 heavy chain …; assay: cell-based or functional assay
[3] = biological target: T1, full-length human kinesin-1 heavy chain …; assay: single-molecule colocalisation on microtubules; remark: listed apart in the source
[4] = biological target: T2, KIF5B^Δ1-336 (human, UniProt P33176 337-963); assay: single-molecule colocalisation on microtubules
T2 sequence (looked up): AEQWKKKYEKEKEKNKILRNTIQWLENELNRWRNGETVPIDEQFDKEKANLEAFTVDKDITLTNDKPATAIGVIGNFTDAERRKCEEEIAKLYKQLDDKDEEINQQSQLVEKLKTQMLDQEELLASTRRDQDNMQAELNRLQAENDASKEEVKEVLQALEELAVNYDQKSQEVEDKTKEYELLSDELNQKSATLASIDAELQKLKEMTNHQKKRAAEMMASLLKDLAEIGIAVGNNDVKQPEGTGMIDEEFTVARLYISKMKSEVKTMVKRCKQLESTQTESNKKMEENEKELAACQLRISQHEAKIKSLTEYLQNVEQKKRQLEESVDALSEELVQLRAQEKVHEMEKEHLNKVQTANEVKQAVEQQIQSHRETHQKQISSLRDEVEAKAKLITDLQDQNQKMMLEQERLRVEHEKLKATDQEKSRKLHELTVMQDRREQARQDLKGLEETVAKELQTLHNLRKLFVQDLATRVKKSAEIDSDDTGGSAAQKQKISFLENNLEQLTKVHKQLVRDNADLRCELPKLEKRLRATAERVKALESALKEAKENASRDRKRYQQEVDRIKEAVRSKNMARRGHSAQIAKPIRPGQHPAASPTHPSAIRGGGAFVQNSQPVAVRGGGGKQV

B1: TRAK2^1-400 (domain or fragment, human, UniProt O60296 1-400, looked up)
chain: MSQSQNAIFTSPTGEENLMNSNHRDSESITDVCSNEDLPEVELVSLLEEQLPQYRLKVDTLFLYENQDWTQSPHQRQHASDALSPVLAEETFRYMILGTDRVEQMTKTYNDIDMVTHLLAERDRDLELAARIGQALLKRNHVLSEQNESLEEQLGQAFDQVNQLQHELCKKDELLRIVSIASEESETDSSCSTPLRFNESFSLSQGLLQLEMLQEKLKELEEENMALRSKACHIKTETVTYEEKEQQLVSDCVKELRETNAQMSRMTEELSGKSDELIRYQEELSSLLSQIVDLQHKLKEHVIEKEELKLHLQASKDAQRQLTMELHELQDRNMECLGMLHESQEEIKELRSRSGPTAHLYFSQSYGAFTGESLAAEIEGTMRKKLSLDEESSLFKQKAQ
modifications: LD555 or LD655 dye on the SNAP tag
[1]
  binding result: binds

B2: full-length TRAK1^1-953 (natural protein, human, UniProt Q9UPV9 1-953, looked up)
chain: MALVFQFGQPVRAQPLPGLCHGKLIRTNACDVCNSTDLPEVEIISLLEEQLPHYKLRADTIYGYDHDDWLHTPLISPDANIDLTTEQIEETLKYFLLCAERVGQMTKTYNDIDAVTRLLEEKERDLELAARIGQSLLKKNKTLTERNELLEEQVEHIREEVSQLRHELSMKDELLQFYTSAAEESEPESVCSTPLKRNESSSSVQNYFHLDSLQKKLKDLEEENVVLRSEASQLKTETITYEEKEQQLVNDCVKELRDANVQIASISEELAKKTEDAARQQEEITHLLSQIVDLQKKAKACAVENEELVQHLGAAKDAQRQLTAELRELEDKYAECMEMLHEAQEELKNLRNKTMPNTTSRRYHSLGLFPMDSLAAEIEGTMRKELQLEEAESPDITHQKRVFETVRNINQVVKQRSLTPSPMNIPGSNQSSAMNSLLSSCVSTPRSSFYGSDIGNVVLDNKTNSIILETEAADLGNDERSKKPGTPGTPGSHDLETALRRLSLRRENYLSERRFFEEEQERKLQELAEKGELRSGSLTPTESIMSLGTHSRFSEFTGFSGMSFSSRSYLPEKLQIVKPLEGSATLHHWQQLAQPHLGGILDPRPGVVTKGFRTLDVDLDEVYCLNDFEEDDTGDHISLPRLATSTPVQHPETSAHHPGKCMSQTNSTFTFTTCRILHPSDELTRVTPSLNSAPTPACGSTSHLKSTPVATPCTPRRLSLAESFTNTRESTTTMSTSLGLVWLLKERGISAAVYDPQSWDRAGRGSLLHSYTPKMAVIPSTPPNSPMQTPTSSPPSFEFKCTSPPYDNFLASKPASSILREVREKNVRSSESQTDVSVSNLNLVDKVRRFGVAKVVNSGRAHVPTLTEEQGPLLCGPPGPAPALVPRGLVPEGLPLRCPTVTSAIGGLQLNSGIRRNRSFPTMVGSSMQMKAPVTLTSGILMGAKLSKQTSLR
modifications: LD655 dye on the SNAP tag (imaging assays)
[1]
  binding result: binds

B3: TRAK1^1-360 (domain or fragment, human, UniProt Q9UPV9 1-360, looked up)
chain: MALVFQFGQPVRAQPLPGLCHGKLIRTNACDVCNSTDLPEVEIISLLEEQLPHYKLRADTIYGYDHDDWLHTPLISPDANIDLTTEQIEETLKYFLLCAERVGQMTKTYNDIDAVTRLLEEKERDLELAARIGQSLLKKNKTLTERNELLEEQVEHIREEVSQLRHELSMKDELLQFYTSAAEESEPESVCSTPLKRNESSSSVQNYFHLDSLQKKLKDLEEENVVLRSEASQLKTETITYEEKEQQLVNDCVKELRDANVQIASISEELAKKTEDAARQQEEITHLLSQIVDLQKKAKACAVENEELVQHLGAAKDAQRQLTAELRELEDKYAECMEMLHEAQEELKNLRNKTMPNTTS
modifications: LD555 or LD655 dye on the SNAP tag (imaging assays)
[2]
  landing rate of kinesin on MTs with TRAK1 1-360 against kinesin alone: 1.5 fold
  landing rate of kinesin/TRAK1 1-360 complexes, increase by 50 nM MAP7: > 7 fold

B4: TRAK2^1-360 (domain or fragment, human, UniProt O60296 1-360, looked up)
chain: MSQSQNAIFTSPTGEENLMNSNHRDSESITDVCSNEDLPEVELVSLLEEQLPQYRLKVDTLFLYENQDWTQSPHQRQHASDALSPVLAEETFRYMILGTDRVEQMTKTYNDIDMVTHLLAERDRDLELAARIGQALLKRNHVLSEQNESLEEQLGQAFDQVNQLQHELCKKDELLRIVSIASEESETDSSCSTPLRFNESFSLSQGLLQLEMLQEKLKELEEENMALRSKACHIKTETVTYEEKEQQLVSDCVKELRETNAQMSRMTEELSGKSDELIRYQEELSSLLSQIVDLQHKLKEHVIEKEELKLHLQASKDAQRQLTMELHELQDRNMECLGMLHESQEEIKELRSRSGPTAHL
modifications: LD555 or LD655 dye on the SNAP tag (imaging assays)
[2]
  landing rate of kinesin/TRAK2 1-360 complexes, increase by 50 nM MAP7: 2 fold

B5: full-length TRAK2^1-914 (natural protein, human, UniProt O60296 1-914, looked up)
chain: MSQSQNAIFTSPTGEENLMNSNHRDSESITDVCSNEDLPEVELVSLLEEQLPQYRLKVDTLFLYENQDWTQSPHQRQHASDALSPVLAEETFRYMILGTDRVEQMTKTYNDIDMVTHLLAERDRDLELAARIGQALLKRNHVLSEQNESLEEQLGQAFDQVNQLQHELCKKDELLRIVSIASEESETDSSCSTPLRFNESFSLSQGLLQLEMLQEKLKELEEENMALRSKACHIKTETVTYEEKEQQLVSDCVKELRETNAQMSRMTEELSGKSDELIRYQEELSSLLSQIVDLQHKLKEHVIEKEELKLHLQASKDAQRQLTMELHELQDRNMECLGMLHESQEEIKELRSRSGPTAHLYFSQSYGAFTGESLAAEIEGTMRKKLSLDEESSLFKQKAQQKRVFDTVRIANDTRGRSISFPALLPIPGSNRSSVIMTAKPFESGLQQTEDKSLLNQGSSSEEVAGSSQKMGQPGPSGDSDLATALHRLSLRRQNYLSEKQFFAEEWQRKIQVLADQKEGVSGCVTPTESLASLCTTQSEITDLSSASCLRGFMPEKLQIVKPLEGSQTLYHWQQLAQPNLGTILDPRPGVITKGFTQLPGDAIYHISDLEEDEEEGITFQVQQPLEVEEKLSTSKPVTGIFLPPITSAGGPVTVATANPGKCLSCTNSTFTFTTCRILHPSDITQVTPSSGFPSLSCGSSGSSSSNTAVNSPALSYRLSIGESITNRRDSTTTFSSTMSLAKLLQERGISAKVYHSPISENPLQPLPKSLAIPSTPPNSPSHSPCPSPLPFEPRVHLSENFLASRPAETFLQEMYGLRPSRNPPDVGQLKMNLVDRLKRLGIARVVKNPGAQENGRCQEAEIGPQKPDSAVYLNSGSSLLGGLRRNQSLPVIMGSFAAPVCTSSPKMGVLKED
modifications: LD655 dye on the SNAP tag (imaging assays)
[1]
  binding result: binds

B6: TRAK1^1-400 (domain or fragment, human, UniProt Q9UPV9 1-400, looked up)
chain: MALVFQFGQPVRAQPLPGLCHGKLIRTNACDVCNSTDLPEVEIISLLEEQLPHYKLRADTIYGYDHDDWLHTPLISPDANIDLTTEQIEETLKYFLLCAERVGQMTKTYNDIDAVTRLLEEKERDLELAARIGQSLLKKNKTLTERNELLEEQVEHIREEVSQLRHELSMKDELLQFYTSAAEESEPESVCSTPLKRNESSSSVQNYFHLDSLQKKLKDLEEENVVLRSEASQLKTETITYEEKEQQLVNDCVKELRDANVQIASISEELAKKTEDAARQQEEITHLLSQIVDLQKKAKACAVENEELVQHLGAAKDAQRQLTAELRELEDKYAECMEMLHEAQEELKNLRNKTMPNTTSRRYHSLGLFPMDSLAAEIEGTMRKELQLEEAESPDITHQK
modifications: LD555 or LD655 dye on the SNAP tag
[3]
  binding result: binds
[4]
  binding result: binds
